Target: Polα-primase, recombinant (Insect PP) (Homo sapiens, UniProt P09884;Q14181;P49642;P49643 1-1462;1-598;1-420;1-509)
Test: EMSA; Kd,app similar to CST-Polα-primase, value only in figure; complex dissociates during electrophoresis; CST EMSA: 20 mM HEPES-NaOH pH 8.0, 150 mM NaCl, 2 mM MgCl2, 0.2 mM EGTA, 0.1% NP-40, 10% glycerol, 1 mM DTT, 2 h on ice, 0.7% agarose 1x TBE gel at 4 °C; POT1-TPP1N EMSA: C-strand synthesis buffer, 30 min at 30 °C
Settings: protein: recombinant; copies: 1;1;1;1; label: 5'-32P; folds into G-quadruplex in KCl and NaCl, not LiCl

Polα-primase, recombinant (Insect PP), sequence (P09884 whole entry, chain 1 of 4): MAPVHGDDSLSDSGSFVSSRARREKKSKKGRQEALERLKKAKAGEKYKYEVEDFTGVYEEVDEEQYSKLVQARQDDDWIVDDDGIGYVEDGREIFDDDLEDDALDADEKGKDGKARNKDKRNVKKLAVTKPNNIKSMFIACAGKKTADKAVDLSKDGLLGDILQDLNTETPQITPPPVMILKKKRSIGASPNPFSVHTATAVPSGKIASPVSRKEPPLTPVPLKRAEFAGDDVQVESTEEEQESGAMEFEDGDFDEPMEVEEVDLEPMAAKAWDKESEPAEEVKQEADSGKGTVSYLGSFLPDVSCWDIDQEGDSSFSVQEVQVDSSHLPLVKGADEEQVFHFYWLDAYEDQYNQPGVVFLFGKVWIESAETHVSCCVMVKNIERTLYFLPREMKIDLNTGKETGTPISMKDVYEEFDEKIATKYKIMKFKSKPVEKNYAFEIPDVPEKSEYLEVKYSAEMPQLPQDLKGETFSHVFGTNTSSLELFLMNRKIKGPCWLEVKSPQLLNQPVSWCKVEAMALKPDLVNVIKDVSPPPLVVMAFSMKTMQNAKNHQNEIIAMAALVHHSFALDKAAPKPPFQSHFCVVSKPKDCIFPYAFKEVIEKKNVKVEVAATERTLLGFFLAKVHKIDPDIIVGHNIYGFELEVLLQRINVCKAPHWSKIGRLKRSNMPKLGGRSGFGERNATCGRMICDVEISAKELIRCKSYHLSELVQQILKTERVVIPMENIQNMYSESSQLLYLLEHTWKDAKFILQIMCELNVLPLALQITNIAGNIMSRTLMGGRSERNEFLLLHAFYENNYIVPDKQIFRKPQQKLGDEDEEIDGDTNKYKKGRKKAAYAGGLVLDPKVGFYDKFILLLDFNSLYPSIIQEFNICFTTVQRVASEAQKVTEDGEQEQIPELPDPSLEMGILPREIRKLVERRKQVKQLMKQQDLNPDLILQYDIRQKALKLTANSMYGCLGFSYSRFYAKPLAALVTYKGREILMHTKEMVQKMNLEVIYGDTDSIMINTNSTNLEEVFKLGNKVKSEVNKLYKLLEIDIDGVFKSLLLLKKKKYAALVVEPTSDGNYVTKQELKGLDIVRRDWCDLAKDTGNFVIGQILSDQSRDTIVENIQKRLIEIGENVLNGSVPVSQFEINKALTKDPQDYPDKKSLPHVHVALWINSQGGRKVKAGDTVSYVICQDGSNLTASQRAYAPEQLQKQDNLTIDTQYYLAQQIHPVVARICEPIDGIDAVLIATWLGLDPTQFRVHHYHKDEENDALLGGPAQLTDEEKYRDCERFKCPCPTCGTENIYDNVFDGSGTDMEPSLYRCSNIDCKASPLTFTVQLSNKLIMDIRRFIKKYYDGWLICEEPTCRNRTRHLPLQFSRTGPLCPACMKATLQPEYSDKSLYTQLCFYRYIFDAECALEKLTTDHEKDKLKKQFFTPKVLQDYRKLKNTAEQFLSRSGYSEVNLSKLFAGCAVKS
Polα-primase, recombinant (Insect PP), sequence (Q14181 whole entry, chain 2 of 4): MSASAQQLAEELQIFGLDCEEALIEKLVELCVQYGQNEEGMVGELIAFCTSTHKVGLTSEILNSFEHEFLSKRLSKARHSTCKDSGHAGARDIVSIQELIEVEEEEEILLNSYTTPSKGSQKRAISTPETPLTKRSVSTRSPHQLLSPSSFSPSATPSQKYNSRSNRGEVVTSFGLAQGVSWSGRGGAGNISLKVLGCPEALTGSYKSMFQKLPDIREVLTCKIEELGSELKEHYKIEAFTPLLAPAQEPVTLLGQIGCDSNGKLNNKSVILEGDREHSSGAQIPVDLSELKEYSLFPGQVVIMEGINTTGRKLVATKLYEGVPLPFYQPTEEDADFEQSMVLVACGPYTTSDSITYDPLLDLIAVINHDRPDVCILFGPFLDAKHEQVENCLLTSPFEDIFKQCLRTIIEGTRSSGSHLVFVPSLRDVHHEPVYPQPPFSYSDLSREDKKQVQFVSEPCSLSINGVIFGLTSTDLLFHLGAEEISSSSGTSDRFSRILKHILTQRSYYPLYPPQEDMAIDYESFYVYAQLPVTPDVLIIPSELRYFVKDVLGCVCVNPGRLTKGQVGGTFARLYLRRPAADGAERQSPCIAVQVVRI
Polα-primase, recombinant (Insect PP), sequence (P49642 whole entry, chain 3 of 4): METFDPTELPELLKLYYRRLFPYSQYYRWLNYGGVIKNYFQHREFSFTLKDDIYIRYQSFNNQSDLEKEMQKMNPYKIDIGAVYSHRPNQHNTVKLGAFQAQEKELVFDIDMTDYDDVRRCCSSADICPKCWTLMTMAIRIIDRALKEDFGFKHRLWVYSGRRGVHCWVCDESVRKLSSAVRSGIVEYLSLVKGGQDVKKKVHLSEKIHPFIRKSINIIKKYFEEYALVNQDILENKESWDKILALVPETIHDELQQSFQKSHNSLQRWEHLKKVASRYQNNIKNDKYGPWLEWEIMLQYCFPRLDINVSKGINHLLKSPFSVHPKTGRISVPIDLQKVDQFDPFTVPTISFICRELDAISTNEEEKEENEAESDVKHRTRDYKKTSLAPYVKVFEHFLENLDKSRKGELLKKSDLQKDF
Polα-primase, recombinant (Insect PP), sequence (P49643 whole entry, chain 4 of 4): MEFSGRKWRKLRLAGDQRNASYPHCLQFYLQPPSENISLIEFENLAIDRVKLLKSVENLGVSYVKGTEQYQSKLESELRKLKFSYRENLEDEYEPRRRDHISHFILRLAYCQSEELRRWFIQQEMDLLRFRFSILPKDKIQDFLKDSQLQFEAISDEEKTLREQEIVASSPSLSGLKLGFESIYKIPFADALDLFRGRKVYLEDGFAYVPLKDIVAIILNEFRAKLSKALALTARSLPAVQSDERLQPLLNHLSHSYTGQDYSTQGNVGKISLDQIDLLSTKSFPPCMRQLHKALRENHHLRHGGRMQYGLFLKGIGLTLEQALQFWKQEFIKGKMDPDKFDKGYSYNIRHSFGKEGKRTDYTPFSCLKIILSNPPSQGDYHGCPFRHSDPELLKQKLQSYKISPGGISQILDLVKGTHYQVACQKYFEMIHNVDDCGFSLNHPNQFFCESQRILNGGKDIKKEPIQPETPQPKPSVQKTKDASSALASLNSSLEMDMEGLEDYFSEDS

B1: 9xTEL (ssDNA)
DNA: TTAGGGTTAGGGTTAGGGTTAGGGTTAGGGTTAGGGTTAGGGTTAGGGTTAGGG
- binding result: binds
